Laboratory results published in patent US10240123B2, “Method for preparing induced paraxial mesoderm progenitor (IPAM) cells and their use” (INSERM (INSTITUT NATIONAL DE LA SANTE ET DE LA RECHERCHE …, priority 2011, dated 2019).
Entries after “also recorded” stand apart in the source; their conditions may differ.

B1: Dkk1: secreted extracellular Wnt antagonist, canonical Wnt inhibitor (protein, UniProt O94907 32-266, looked up)
Dickkopf-related protein 1: TLNSVLNSNAIKNLPPPLGGAAGHPGSAVSAAPGILYPGGNKYQTIDNYQPYPCAEDEECGTDEYCASPTRGGDAGVQICLACRKRRKRCMRHAMCCPGNYCKNGICVSSDQNHFRGEIEETITESFGNDHSTLDGYSRRTTLSSKMYHTKGQEGSVCLRSSDCASGLCCARHFWSKICKPVLKEGQVCTKHRRKGSHGLEIFQRCYCGEGLSCRIQKDHHQASNSSRLHTCQRH
B2: R-spondin3: secreted protein of the R-spondin family that activates the Wnt signaling pathway; recombinant (protein, UniProt Q9BXY4 22-272, looked up)
R-spondin-3: QNASRGRRQRRMHPNVSQGCQGGCATCSDYNGCLSCKPRLFFALERIGMKQIGVCLSSCPSGYYGTRYPDINKCTKCKADCDTCFNKNFCTKCKSGFYLHLGKCLDNCPEGLEANNHTMECVSIVHCEVSEWNPWSPCTKKGKTCGFKRGTETRVREIIQHPSAKGNLCPPTNETRKCTVQRKKCQKGERGKKGRERKRKKPNKGESKEAIPDSKSLESSKEIPEQRENKQQQKKRKVQDKQKSVSVSTVH
B3: Noggin: recombinant protein known to inhibit BMP4 (protein, UniProt Q13253 28-232, looked up)
Noggin: QHYLHIRPAPSDNLPLVDLIEHPDPIFDPKEKDLNETLLRSLLGGHYDPGFMATSPPEDRPGGGGGAAGGAEDLAELDQLLRQRPSGAMPSEIKGLEFSEGLAQGKKQRLSKKLRRKLQMWLWSQTFCPVLYAWNDLGSRFWPRYVKVGSCFSKRSCSVPEGMVCKPSKSVHLTVLRWRCQRRGGQRCGWIPIQYPIISECKCSC
B4: Follistatin: recombinant protein BMP inhibitor (protein, UniProt P19883 30-344, looked up)
Follistatin: GNCWLRQAKNGRCQVLYKTELSKEECCSTGRLSTSWTEEDVNDNTLFKWMIFNGGAPNCIPCKETCENVDCGPGKKCRMNKKNKPRCVCAPDCSNITWKGPVCGLDGKTYRNECALLKARCKEQPELEVQYQGRCKKTCRDVFCPGSSTCVVDQTNNAYCVTCNRICPEPASSEQYLCGNDGVTYSSACHLRKATCLLGRSIGLAYEGKCIKAKSCEDIQCTGGKKCLWDFKVGRGRCSLCDELCPDSKSDEPVCASDNATYASECAMKEAACSSGVLLEVKHSGSCNSISEDTEEEEEDEDQDYSFPISSILEW
B5: R-spondin2: secreted protein of the R-spondin family that activates the Wnt signaling pathway; recombinant (protein, UniProt Q6UXX9 22-243, looked up)
R-spondin-2: QGNRWRRSKRASYVSNPICKGCLSCSKDNGCSRCQQKLFFFLRREGMRQYGECLHSCPSGYYGHRAPDMNRCARCRIENCDSCFSKDFCTKCKVGFYLHRGRCFDECPDGFAPLEETMECVEGCEVGHWSEWGTCSRNNRTCGFKWGLETRTRQIVKKPVKDTILCPTIAESRRCKMTMRHCPGGKRTPKAKEKRNKKKKRKLIERAQEQHSVFLATDRANQ

Assays:
Msgn1RepV mouse ES cells = assay: Msgn1RepV reporter mouse ES cell differentiation, YFP+ (iPAM) cells by flow cytometry; assay type: cell-based; conditions: for effect on number of YFP+ cells (iPAM induction): 4 days of differentiation
Experimental: Undifferentiated mouse ES cells […] derived) were maintained on gelatin-coated dishes in DMEM supplemented with 15% fetal bovine serum (FBS; from PAA), penicillin, streptomycin, 2 mM L-Glutamine, 0.1 mM non essential amino acids, 1 mM sodium pyruvate, 0.2% β-mercaptoethanol and 1,500 U/mL LIF. ES cells were co-cultured with mytomicin-inactivated MEFs (feeders). Undifferentiated human ES cells were cultured on plates coated with matrigel (BD Biosciences) in mTeSR medium ([…] Technologies). Cultures were maintained in an incubator in 5% CO2 at 37° C. ES cells were trypsinized and plated at various densities in gelatin coated, feeder-free, 24 well plates directly in serum-based (15% FBS) or serum-replacement (15% KSR, Invitrogen) conditions supplemented with factors, and DMSO (Sigma). Recombinant proteins were obtained commercially (R&D) and stock solutions were prepared according to manufacturer's recommendation. The GSK-3ß inhibitor CHIR99021 and the BMP type I receptors inhibitor Dorsomorphin were purchased from Stemgent and prepared according to the manufacturer's recommendations. Fluorescent reporter analysis and image acquisition were done on a Zeiss Axiovert system. Cell cultures were dissociated by trypsinization, analyzed by flow cytometry on a FACScalibur (BD Biosciences) according to YFP expression. Data were further analyzed with MoFlo software (Beckman Coulter) and FlowJo software. In order to optimize the differentiation conditions for paraxial mesoderm progenitors, we developed a manual screening assay, testing candidate growth factors and drugs interfering with various signaling pathways on ES cells. The […] reporter cells were plated at a defined density in 24-well plates coated with gelatin (0.1%). Two basal culture media were selected: a DMEM based medium containing 15% fetal bovine serum (FBS, high serum) and a defined serum-free medium containing 15% KSR (Invitrogen/Gibco). These basal media were supplemented with candidate factors on day 0 of differentiation. Control and experimental conditions were cultured in parallel. Cells were left to differentiate for three to four days with medium changed on day 2 or 3. Cell cultures were analyzed on day 3 and 4 of differentiation visually and by flow cytometry for YFP+ population quantification.

BMP4 = BMP4 and PSM marker expression in Msgn1-YFP+ cells (microarray, qRT-PCR); assay type: cell-based, mouse; conditions: for iPAM maturation, PSM specific marker expression: added to differentiation medium
Experimental: Mouse E9.5 embryo PSMs were microdissected and processed as previously described (Krol et al, 2011), and prepared samples were run on Affymetrix GeneChip arrays. For differentiated cell cultures, iPAMs were sorted by flow-cytometry based on their Msgn1-YFP+ expression, and samples were prepared for microarrays. Experiments were conducted on biological triplicates. Datasets were processed using Affymetrix Microarray Suite (MAS) 5.0. Total RNA was extracted from ES cell cultures using Trizol (Invitrogen) or with the […] plus mini-kit (Qiagen). RT-PCR was performed on 5 ng total RNA using QuantiFast SYBR Green RT-PCR Kit (Qiagen), appropriate primers and run on a LightCycler 480II (Roche). GAPDH was used as the internal control. To counteract this BMP4 activity, we tested the effect of addition of recombinant Noggin (Nog) protein known to inhibit BMP4, to the differentiation medium. […] We further defined both the optimal concentration and timing of Noggin addition. […] To better characterize the impact of Noggin on Msgn1-YFP+ cells, we performed microarrays on the Msgn1-YFP+ induced paraxial mesoderm progenitors (iPAM) population at day 3 and 4 of differentiation (FIG. 11, compare conditions RDN and RD). We screened a set of BMP inhibitors, including recombinant proteins Noggin (Nog), Chordin (Chd), Chordin-like 1 (Chdl1), Follistatin (Fst), Follistatin-like 1 (Fstl1), Dan family protein including Cerberus 1 (Cerberus) and Gremlin 1 (Grem1); at varying concentration range (10-200 ng/mL), and various time-window (day 0-4, day 1-4) and analyzed the impact on BMP4 and the PSM marker Tbx6 expression. Additionally, we tested the chemical compound Dorsomorphin (Compound C), a specific BMP type I receptor inhibitor, at various concentration (0.1-1 μM) and various time-window (day 0-4, day 1-4).

HUES1 cells = assay: qRT-PCR of paraxial mesoderm progenitor markers in differentiating human ES cells; assay type: cell-based; conditions: 15% FBS containing medium, 3 to 10 days of culture
Experimental: Comparison of the expression of paraxial mesoderm progenitor markers Brachyury (A), PDGFRa (B), Tbx6 (C), Msgn1 (D) measured by Q RT-PCR in HUES1 undifferentiated or cultured in 15% FBS containing medium with or without Rspo3 for up to 10 days. Relative expression to undifferentiated HUES1 cells is shown (fold induction).
Total RNA was extracted from ES cell cultures using Trizol (Invitrogen) or with the Rnaeasy plus mini-kit (Qiagen). RT-PCR was performed on 5 ng total RNA using QuantiFast SYBR Green RT-PCR Kit (Qiagen), appropriate primers and run on a LightCycler 480II (Roche). GAPDH was used as the internal control.
Next, to confirm that R-spondin also induces paraxial mesoderm progenitors (iPAM) cells from human ES cells differentiation, HUES1 cells were plated as single cells and differentiated in 15% FBS containing medium with or without Rspo3. qRT-PCR time course analysis for paraxial mesoderm progenitor markers expression was performed (FIG. 10).

canonical Wnt signaling = assay: BAT-luc luciferase reporter for canonical Wnt signaling in ES cells; assay type: cell-based, mouse; conditions: Rspo3 10 ng/mL, 1% FBS medium

Molecule	effect on number of YFP+ cells (iPAM induction) (Msgn1RepV mouse ES cells; 15% FBS medium)	iPAM maturation, PSM specific marker expression (BMP4)	other results
Cc1c[nH]c(-c2cnc(NCCNc3ccc(C#N)cn3)nc2-c2ccc(Cl)cc2Cl)n1 [CHIR99021, reference compound]	as efficient as Rspo-3	–	–
C[S+](C)[O-] [DMSO, Dimethyl sulfoxide, reference compound]	increase of YFP+ cells	–	–
c1cc(-c2cnn3cc(-c4ccc(OCCN5CCCCC5)cc4)cnc23)ccn1 [Dorsomorphin, 6-[4-(2-Piperidin-1-yl-ethoxy)phenyl]-3-pyridin-4-yl-pyrazolo [1,5-a]pyrimidine, reference compound]	–	promoting induced paraxial mesoderm progenitors (iPAM) maturation	–
B1	sharp decrease of YFP+ induction	–	–
B2	significantly increase the number of YFP+ cells	–	induction of YFP+ cells (Msgn1RepV mouse ES cells; 10 ng/mL, both FBS based and KSR based medium, 4 days): up to 70%; YFP+ population of the total population (Msgn1RepV mouse ES cells; day 4 of differentiation, 15% FBS medium, R-spondin3 10 ng/mL): more than 70%; expression of paraxial mesoderm progenitor markers (qRT-PCR) (HUES1 cells): induction of the paraxial mesoderm progenitor markers, Brachyury, PDGFRa, Tbx6 and Msgn1 is observed; also recorded: Strong activation of Msgn1 and Tbx6; luciferase from BAT-luc canonical Wnt reporter (canonical Wnt signaling): strongly activated; luciferase from BAT-luc canonical Wnt reporter (canonical Wnt signaling; listed as Rspo3): strongly activates the canonical Wnt response
B3	–	upregulation of several PSM specific markers; also recorded: promoting induced paraxial mesoderm progenitors (iPAM) maturation	BMP4 expression in Msgn1-YFP+ cells (BMP4; added to differentiation medium with Rspo3 and DMSO, day 3 and 4): effectively repress BMP4 expression; also recorded: represses BMP4 expression; total number of Msgn1-YFP+ iPAM cells or total cell number in culture (Msgn1RepV mouse ES cells; added to differentiation medium): does not change the total number
B4	–	promoting induced paraxial mesoderm progenitors (iPAM) maturation	–
B5	significantly increase the number of YFP+ cells	–	–
